Drawing on article PMC7504508 (International Journal of Molecular Sciences, 2020), this text covers Kd for 1 molecule.

The target in the assay is calmodulin (UniProt P0DP23 1-149). In words: SPR; GST-Sumo-Cx35 fusion proteins captured by immobilised anti-GST antibodies on a CM5 chip (Biacore 2000); calmodulin as analyte, 3 nM to 30 µM; GST-Sumo reference flowcell subtracted; 1 mM free Ca2+, 0.5 mM free Mg2+, 140 mM KCl, 10 mM MOPS pH 7.2, 0.05% Tween 20; first order ligand binding model. As to conditions: both partners purified.

B1: GST-Sumo fusion protein of the perch Connexin 35 intracellular loop (amino acids 101-192) (domain or fragment)
chain: SAKQKERRYSTVYLTLDKDQDSLKRDESKKIKNTIVNGVLQNTENSTKEAEPDCLEVKEIPNSAMRTTKSKMRRQEGISRFYIIQVVFRNAL
Broadly, the Kd is the concentration at which binding is half-saturated. Higher therefore signals weaker binding. Turning to B1, binding was characterised by a dissociation constant (Kd) of 6.29 µM.
